# T1: Recombinant His6-GADD45β, O75293
# T1 chain: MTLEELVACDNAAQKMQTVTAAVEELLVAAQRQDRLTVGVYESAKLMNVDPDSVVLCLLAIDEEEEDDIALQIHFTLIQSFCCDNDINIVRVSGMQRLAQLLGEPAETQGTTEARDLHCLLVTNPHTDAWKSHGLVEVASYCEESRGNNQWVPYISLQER
# T2: His6-MKK7 Kinase Domain (MKK7_KD, residues 101–405, Ser271Asp and Thr275Asp) (UniProt O14733 101-405, Ser271Asp | Thr275Asp)
# T2 construct: Theoretical mass with tag is printed as 36194.8 Da; In the GADD45β cross-linking experiment this protein was first labelled on amines with SDA (NHS-diazirine); also called MKK7_KD 101–405; MKK7_KD (101–405); source: E. coli BL21(DE3), pETDuet-1, purified (His-Trap, Superdex 75 gel filtration)
# T2 sequence (looked up): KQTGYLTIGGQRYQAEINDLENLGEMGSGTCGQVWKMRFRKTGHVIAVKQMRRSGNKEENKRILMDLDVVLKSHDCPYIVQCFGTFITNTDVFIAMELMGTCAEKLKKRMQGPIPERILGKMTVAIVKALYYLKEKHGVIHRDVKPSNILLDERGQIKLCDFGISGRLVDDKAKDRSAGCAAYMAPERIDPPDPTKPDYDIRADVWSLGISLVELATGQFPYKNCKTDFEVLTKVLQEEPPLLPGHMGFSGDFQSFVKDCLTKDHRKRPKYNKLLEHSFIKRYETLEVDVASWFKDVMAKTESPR
# B1: Recombinant His6-GADD45β, O75293 1-160 (natural protein)
# chain: T1 chain
# B2: Recombinant His6-GADD45β (natural protein, UniProt O75293 1-160, looked up)
# chain: T1 chain
# notes: GADD45β, UniProt O75293, 160 amino acids; The theoretical mass of the tagged protein is printed as 19196.6 Da, against 17,818 Da for the 160-residue protein; also called Growth arrest and DNA-damage-inducible GADD45-family member GADD45β; source: E. coli BL21(DE3), pET28a, purified (His-Trap, Superdex 75 gel filtration)
# B3: biotinylated GADD45β (natural protein, UniProt O75293 1-160, looked up)
# chain: T1 chain
# modifications: biotin (site not stated)
# notes: GADD45β, UniProt O75293, 160 amino acids; as m1, biotinylated; also called biotin-GADD45β; biotinylated variant of GADD45β; source: E. coli BL21(DE3), pET28a, purified (His-Trap, gel filtration), biotinylated
# Columns and labels:
# [1] = molecular target: His6-MKK7 Kinase Domain (MKK7_KD, residues 101–405, Ser271Asp and Thr275Asp) (UniProt O14733); experiment: other fluorescence titration; tryptophan fluorescence quenching; 1.25 μM MKK7_KD in 10 mM phosphate buffer pH 7.5, peptide added stepwise, 25.0 °C, excitation 295 nm, emission read at 333 nm
# [2] = molecular target: T1, Recombinant His6-GADD45β, O75293; experiment: cross-linking; SDA reacted first with GADD45β (preliminary reaction order), then photo-cross-linking; conditions: remark: other sources report otherwise
# [3] = molecular target: T2, His6-MKK7 Kinase Domain (MKK7_KD, …); experiment: SPR; Biacore3000; GADD45β covalently immobilised on a CM5 chip (EDC/NHS, pH 3.5), soluble MKK7_KD injected; KD averaged over the values at the various concentrations; conditions: both partners purified
# [4] = molecular target: T2, His6-MKK7 Kinase Domain (MKK7_KD, …); experiment: ELISA; MKK7_KD coated on polystyrene wells at 100 nM; biotinylated GADD45β at 10–160 nM; detection with Streptavidin-HRP; 1:1 curve fit; conditions: both partners purified
molecule,measurement,setting,value
DTP3 (Ac-D-Tyr-D-Arg-D-Phe-NH2) (peptide),Kd,[1],100 nM
B1,stoichiometry N,[2],2
B2,Kd,[3],~6 nM
B3,Kd,[4],~30 nM
